Assay results from publication PMC12164381.

How the values were obtained:
Assay in all cases: SPR
[1] = biological target: SARS-CoV-2 Spike RBD, original (Wuhan) strain (SARS-CoV-2, original Wuhan strain) (UniProt P0DTC2)
[2] = biological target: Inverse folding design from the DXP-604 starting point (Table 5, design row 2, the 5th table, row 5)
[3] = biological target: Inverse folding design from the DXP-604 starting point (Table 5, design row 5, the 5th table, row 8)
[4] = biological target: OAS scanning design from the DXP-604 starting point (Table 2, 1st design row, the 2nd table, row 8)
[5] = biological target: Inverse folding design from the DXP-604 starting point (Table 5, design row 3, the 5th table, row 6)
[6] = biological target: Inverse folding design from the DXP-604 starting point (Table 5, design row 6, the 5th table, row 9)
[7] = biological target: S309
[8] = biological target: Inverse folding design from the DXP-604 starting point (Table 5, design row 4, the 5th table, row 7)
[9] = biological target: Efficient evolution design from the S309 starting point (Table 4, design row 1, the 4th table, row 4)
[10] = biological target: Inverse folding design from the DXP-604 starting point (Table 5, design row 1, the 5th table, row 4)
[11] = biological target: Inverse folding design from the DXP-604 starting point (Table 5, design row 7, the 5th table, row 10)
[12] = biological target: BD55–5840
[13] = biological target: DXP-604
[14] = biological target: Inverse folding design from the LY-CoV1404 starting point (Table 5, design row 1, the 5th table, row 12)
[15] = biological target: Efficient evolution design from the S309 starting point (Table 4, design row 5, the 4th table, row 8)
[16] = biological target: Inverse folding design from the LY-CoV1404 starting point (Table 5, design row 2, the 5th table, row 13)
[17] = biological target: Efficient evolution design from the S309 starting point (Table 4, design row 2, the 4th table, row 5)
[18] = biological target: Efficient evolution design from the S309 starting point (Table 4, design row 3, the 4th table, row 6)
[19] = biological target: OAS scanning design from the DXP-604 starting point (Table 2, 2nd design row, the 2nd table, row 9)
[20] = biological target: Efficient evolution design from the S309 starting point (Table 4, design row 6, the 4th table, row 9)

DXP-604 (antibody)
pKD [1]: 9.67 -log10(KD)

SARS-CoV-2 Spike RBD, XBB.1 strain (from UniProt P0DTC2) (domain or fragment)
pKD [2]: 5.99 -log10(KD) | pKD [3]: 5.91 -log10(KD) | pKD [4]: 5.35 -log10(KD) | pKD [5]: 5.12 -log10(KD) | pKD [6]: 6.37 -log10(KD) | pKD [7]: 8.93 -log10(KD) | pKD [8]: 5.84 -log10(KD) | pKD [9]: 8.7 -log10(KD) | pKD [10]: 5.78 -log10(KD) | pKD [11]: 6.15 -log10(KD)

SARS-CoV-2 Spike RBD, XBB.1.5 strain (from UniProt P0DTC2) (domain or fragment)
pKD [12]: 6.14 -log10(KD) | pKD [4]: 5.87 -log10(KD) | pKD [13]: 5.84 -log10(KD) | pKD [14]: 4.87 -log10(KD) | pKD [9]: 8.89 -log10(KD) | pKD [15]: 9.12 -log10(KD) | pKD [16]: 4.88 -log10(KD) | pKD [17]: 8.93 -log10(KD)

SARS-CoV-2 Spike RBD, original (Wuhan) strain (from UniProt P0DTC2) (domain or fragment)
pKD [4]: 9.07 -log10(KD) | pKD [18]: 8.7 -log10(KD) | pKD [9]: 8.7 -log10(KD) | pKD [19]: 9.38 -log10(KD) | pKD [20]: 8.7 -log10(KD)
